Data published in patent US20190002564A1 (Hoffmann-La Roche, published 2019).

Key:
[1] = target: T1, human CEA (Carcinoembryonic antigen, CEACAM5) on tumor cells (human, UniProt P06731 35-685, The C-terminal Ala685 carries the GPI anchor. The protein is heavily N-glycosylated.); experiment: cell-based or functional assay
T1 sequence: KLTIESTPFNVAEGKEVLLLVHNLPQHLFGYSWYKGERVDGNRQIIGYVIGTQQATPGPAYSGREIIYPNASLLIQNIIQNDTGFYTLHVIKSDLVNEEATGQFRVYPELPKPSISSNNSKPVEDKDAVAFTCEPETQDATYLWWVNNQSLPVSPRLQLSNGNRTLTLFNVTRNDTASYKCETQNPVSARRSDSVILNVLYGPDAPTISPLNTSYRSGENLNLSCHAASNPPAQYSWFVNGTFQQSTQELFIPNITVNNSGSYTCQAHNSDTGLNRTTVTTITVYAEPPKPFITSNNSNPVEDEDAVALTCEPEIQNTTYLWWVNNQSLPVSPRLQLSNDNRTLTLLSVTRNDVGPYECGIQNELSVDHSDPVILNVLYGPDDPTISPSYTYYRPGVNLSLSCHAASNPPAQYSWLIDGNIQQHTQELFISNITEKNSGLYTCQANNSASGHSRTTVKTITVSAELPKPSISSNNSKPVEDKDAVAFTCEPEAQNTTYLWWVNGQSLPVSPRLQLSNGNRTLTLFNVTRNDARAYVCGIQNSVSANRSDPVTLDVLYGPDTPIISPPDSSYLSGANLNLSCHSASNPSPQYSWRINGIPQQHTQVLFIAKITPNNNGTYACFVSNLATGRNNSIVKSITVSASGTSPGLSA

[2] = target: T2, human CD3 on Jurkat cells (Homo sapiens, UniProt P07766); experiment: flow cytometry on Jurkat cells (human CD3), FITC-conjugated anti-human IgG F(ab')2 secondary antibody, median fluorescence intensity
T2 construct: native, on the surface of the Jurkat human T cell line; also called CD3+ cells (Jurkat)
T2 sequence (P07766 23-207): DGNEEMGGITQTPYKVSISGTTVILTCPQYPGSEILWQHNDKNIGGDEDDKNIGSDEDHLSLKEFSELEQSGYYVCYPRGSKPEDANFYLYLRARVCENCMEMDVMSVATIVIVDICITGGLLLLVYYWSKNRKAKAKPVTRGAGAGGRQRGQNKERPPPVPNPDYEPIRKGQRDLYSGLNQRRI
Method: (§1) An untargeted TCB (SEQ ID NOs: 59, 60, 61 and 62; see example 24) was used as control. Briefly, cells were harvested, counted, checked for viability and resuspended at 2×10⁶ cells/ml in FACS buffer (100 μl PBS 0.1% BSA).

[3] = target: T1, human CEA (Carcinoembryonic antigen, …); experiment: cell-based or functional assay; remark: listed apart in the source
[4] = target: T2, human CD3 on Jurkat cells; experiment: flow cytometry on Jurkat cells (CD3+), PE-conjugated anti-human IgG Fcγ secondary antibody, median fluorescence intensity
Method: (§2) Briefly, cells were harvested, counted, checked for viability and resuspended at 2×10⁶ cells/ml in FACS buffer (100 μl PBS 0.1% BSA).

[5] = target: T3, human MCSP (Melanoma-associated Chondroitin Sulfate Proteoglycan) on tumor cells (human, UniProt Q6UVK1 30-2322); experiment: flow cytometry on A375 cells (MCSP+), PE-conjugated anti-human IgG Fcγ secondary antibody, median fluorescence intensity
T3 construct: whole, on cells; Cell surface antigen on human tumor cell lines A375 (high), MV-3 (medium), HCT-116 (low); also called CSPG4
T3 sequence (Q6UVK1 30-2322): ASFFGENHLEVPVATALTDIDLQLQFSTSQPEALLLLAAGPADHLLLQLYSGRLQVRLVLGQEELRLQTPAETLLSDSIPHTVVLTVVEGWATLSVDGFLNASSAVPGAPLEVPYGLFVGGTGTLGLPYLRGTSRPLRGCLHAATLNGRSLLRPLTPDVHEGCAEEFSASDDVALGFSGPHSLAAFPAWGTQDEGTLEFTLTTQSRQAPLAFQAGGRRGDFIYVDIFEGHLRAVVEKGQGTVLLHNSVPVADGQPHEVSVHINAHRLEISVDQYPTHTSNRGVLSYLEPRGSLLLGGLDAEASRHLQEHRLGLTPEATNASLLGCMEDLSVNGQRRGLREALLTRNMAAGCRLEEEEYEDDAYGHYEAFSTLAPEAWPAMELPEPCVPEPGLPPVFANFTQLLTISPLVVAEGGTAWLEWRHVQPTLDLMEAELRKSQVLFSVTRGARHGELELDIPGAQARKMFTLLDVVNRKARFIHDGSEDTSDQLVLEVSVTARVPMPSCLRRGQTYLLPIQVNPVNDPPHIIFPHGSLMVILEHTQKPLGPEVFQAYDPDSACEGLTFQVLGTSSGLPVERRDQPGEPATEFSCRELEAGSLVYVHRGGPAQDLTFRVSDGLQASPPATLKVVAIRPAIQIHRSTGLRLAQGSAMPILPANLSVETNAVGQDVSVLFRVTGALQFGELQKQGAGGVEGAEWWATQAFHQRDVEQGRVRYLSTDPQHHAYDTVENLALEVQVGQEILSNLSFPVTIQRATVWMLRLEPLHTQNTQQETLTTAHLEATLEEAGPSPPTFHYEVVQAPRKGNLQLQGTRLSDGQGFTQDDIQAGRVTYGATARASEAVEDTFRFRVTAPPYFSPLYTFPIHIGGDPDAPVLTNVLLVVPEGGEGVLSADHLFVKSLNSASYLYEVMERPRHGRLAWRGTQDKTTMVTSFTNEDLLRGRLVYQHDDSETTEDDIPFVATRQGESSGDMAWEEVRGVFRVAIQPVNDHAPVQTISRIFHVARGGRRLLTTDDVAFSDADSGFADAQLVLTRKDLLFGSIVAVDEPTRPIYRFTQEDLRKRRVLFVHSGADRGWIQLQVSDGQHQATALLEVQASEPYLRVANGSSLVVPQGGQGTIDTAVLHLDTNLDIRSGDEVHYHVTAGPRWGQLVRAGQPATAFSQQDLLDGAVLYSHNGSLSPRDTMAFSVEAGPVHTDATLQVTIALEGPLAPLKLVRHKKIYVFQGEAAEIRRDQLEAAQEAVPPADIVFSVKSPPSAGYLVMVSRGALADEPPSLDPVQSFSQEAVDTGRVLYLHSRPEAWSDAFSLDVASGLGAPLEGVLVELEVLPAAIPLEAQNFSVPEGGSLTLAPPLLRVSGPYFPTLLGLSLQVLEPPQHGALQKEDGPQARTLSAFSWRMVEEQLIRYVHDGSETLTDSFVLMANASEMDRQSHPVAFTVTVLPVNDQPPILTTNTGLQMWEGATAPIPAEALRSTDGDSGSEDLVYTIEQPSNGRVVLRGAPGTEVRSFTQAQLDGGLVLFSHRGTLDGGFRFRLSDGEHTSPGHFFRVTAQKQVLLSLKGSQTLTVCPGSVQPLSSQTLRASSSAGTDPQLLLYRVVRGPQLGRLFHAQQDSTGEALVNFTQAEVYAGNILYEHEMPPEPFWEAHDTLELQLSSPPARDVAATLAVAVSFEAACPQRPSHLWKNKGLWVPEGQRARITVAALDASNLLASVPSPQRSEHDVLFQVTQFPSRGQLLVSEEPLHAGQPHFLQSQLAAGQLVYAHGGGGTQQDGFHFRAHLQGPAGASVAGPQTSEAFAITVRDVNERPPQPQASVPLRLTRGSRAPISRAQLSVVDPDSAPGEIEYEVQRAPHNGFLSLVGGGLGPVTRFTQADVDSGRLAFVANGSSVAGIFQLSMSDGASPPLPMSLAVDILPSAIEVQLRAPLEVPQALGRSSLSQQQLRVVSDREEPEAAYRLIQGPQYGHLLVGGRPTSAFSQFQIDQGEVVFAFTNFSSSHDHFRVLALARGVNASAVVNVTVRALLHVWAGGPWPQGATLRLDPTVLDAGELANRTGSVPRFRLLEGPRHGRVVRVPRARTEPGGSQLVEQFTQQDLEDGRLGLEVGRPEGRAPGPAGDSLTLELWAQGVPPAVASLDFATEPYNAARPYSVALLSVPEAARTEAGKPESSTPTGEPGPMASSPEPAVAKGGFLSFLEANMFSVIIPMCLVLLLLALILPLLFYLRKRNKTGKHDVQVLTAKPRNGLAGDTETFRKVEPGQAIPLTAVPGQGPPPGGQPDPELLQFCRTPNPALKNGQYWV
Method: as §2

[6] = target: T1, human CEA (Carcinoembryonic antigen, …); experiment: flow cytometry on A549-huCEA cells, FITC-conjugated anti-human IgG F(ab')2 secondary antibody, median fluorescence intensity
Method: as §1

cynomolgus MCSP D3 = target: T4, cynomolgus MCSP D3 (cynomolgus, UniProt Q6UVK1 1582-2224 (human entry), limits assumed); experiment: SPR ProteOn XPR36; parental M4-3/ML2 IgG KD against variant IgG KD
T4 construct: Recombinant, captured through anti-Penta His in the avidity set-up; also called Cyno MCSP; cynomolgus homologue
T4 chain: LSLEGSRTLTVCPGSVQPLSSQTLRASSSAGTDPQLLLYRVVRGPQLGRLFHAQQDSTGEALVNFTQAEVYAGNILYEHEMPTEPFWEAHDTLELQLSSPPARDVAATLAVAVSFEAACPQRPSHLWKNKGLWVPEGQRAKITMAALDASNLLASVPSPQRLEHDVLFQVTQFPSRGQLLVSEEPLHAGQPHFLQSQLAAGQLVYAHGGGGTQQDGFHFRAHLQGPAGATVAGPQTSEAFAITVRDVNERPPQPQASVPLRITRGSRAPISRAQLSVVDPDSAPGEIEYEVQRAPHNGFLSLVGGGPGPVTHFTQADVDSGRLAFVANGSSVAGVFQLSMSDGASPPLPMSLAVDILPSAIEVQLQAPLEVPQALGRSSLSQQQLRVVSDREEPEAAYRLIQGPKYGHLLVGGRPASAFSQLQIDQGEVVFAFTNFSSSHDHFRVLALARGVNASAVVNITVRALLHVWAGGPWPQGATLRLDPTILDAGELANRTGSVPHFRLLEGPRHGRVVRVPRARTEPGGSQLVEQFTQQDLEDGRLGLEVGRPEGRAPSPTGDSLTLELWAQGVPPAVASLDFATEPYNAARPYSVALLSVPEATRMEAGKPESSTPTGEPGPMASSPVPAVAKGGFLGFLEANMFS

[7] = target: T5, human MCSP(D3 domain)-avi-his (human, UniProt Q6UVK1 1582-2224); experiment: as above
T5 construct: Recombinant D3 domain of MCSP (CSPG4) with avi and his tags; also called hu-MCSP(D3 domain)-avi-his; human MCSP antigen
T5 sequence: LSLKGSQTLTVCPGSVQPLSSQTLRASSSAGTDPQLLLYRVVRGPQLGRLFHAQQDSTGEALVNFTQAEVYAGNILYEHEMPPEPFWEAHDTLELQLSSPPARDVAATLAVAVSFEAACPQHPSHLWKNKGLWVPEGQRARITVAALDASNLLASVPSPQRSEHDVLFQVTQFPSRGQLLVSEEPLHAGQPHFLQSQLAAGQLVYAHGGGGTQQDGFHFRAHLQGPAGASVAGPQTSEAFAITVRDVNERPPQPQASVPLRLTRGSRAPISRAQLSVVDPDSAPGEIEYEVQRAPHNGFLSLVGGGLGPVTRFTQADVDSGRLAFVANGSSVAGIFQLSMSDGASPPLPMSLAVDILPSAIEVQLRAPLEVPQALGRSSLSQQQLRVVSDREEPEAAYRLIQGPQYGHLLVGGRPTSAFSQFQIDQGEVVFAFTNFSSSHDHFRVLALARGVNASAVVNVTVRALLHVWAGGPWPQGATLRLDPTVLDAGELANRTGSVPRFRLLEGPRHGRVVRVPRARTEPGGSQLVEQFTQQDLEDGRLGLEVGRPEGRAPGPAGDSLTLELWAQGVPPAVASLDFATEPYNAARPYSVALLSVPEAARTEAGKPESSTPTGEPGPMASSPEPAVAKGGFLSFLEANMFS

B1: CEA TCB (2+1 Crossfab-IgG P329G LALA inverted) (bispecific antibody)
chain 1: DIQMTQSPSSLSASVGDRVTITCKASAAVGTYVAWYQQKPGKAPKLLIYSASYRKRGVPSRFSGSGSGTDFTLTISSLQPEDFATYYCHQYYTYPLFTFGQGTKLEIKRTVAAPSVFIFPPSDEQLKSGTASVVCLLNNFYPREAKVQWKVDNALQSGNSQESVTEQDSKDSTYSLSSTLTLSKADYEKHKVYACEVTHQGLSSPVTKSFNRGEC
chain 2: QAVVTQEPSLTVSPGGTVTLTCGSSTGAVTTSNYANWVQEKPGQAFRGLIGGTNKRAPGTPARFSGSLLGGKAALTLSGAQPEDEAEYYCALWYSNLWVFGGGTKLTVLSSASTKGPSVFPLAPSSKSTSGGTAALGCLVKDYFPEPVTVSWNSGALTSGVHTFPAVLQSSGLYSLSSVVTVPSSSLGTQTYICNVNHKPSNTKVDKKVEPKSC
chain 3: not shown
chain 4: QVQLVQSGAEVKKPGASVKVSCKASGYTFTEFGMNWVRQAPGQGLEWMGWINTKTGEATYVEEFKGRVTFTTDTSTSTAYMELRSLRSDDTAVYYCARWDFAYYVEAMDYWGQGTTVTVSSASTKGPSVFPLAPSSKSTSGGTAALGCLVKDYFPEPVTVSWNSGALTSGVHTFPAVLQSSGLYSLSSVVTVPSSSLGTQTYICNVNHKPSNTKVDKKVEPKSCDKTHTCPPCPAPEAAGGPSVFLFPPKPKDTLMISRTPEVTCVVVDVSHEDPEVKFNWYVDGVEVHNAKTKPREEQYNSTYRVVSVLTVLHQDWLNGKEYKCKVSNKALGAPIEKTISKAKGQPREPQVCTLPPSRDELTKNQVSLSCAVKGFYPSDIAVEWESNGQPENNYKTTPPVLDSDGSFFLVSKLTVDKSRWQQGNVFSCSVMHEALHNHYTQKSLSLSPGK
notes: Two anti-CEA Fabs CH1A1A 98/99 2F1, one anti-CD3 crossfab (humanized CH2527), Fc knob-into-hole with P329G LALA; the conventional light chain occurs twice (vector ratio 1:2:1:1); also called CEA TCB antibody
For B1, the “EC50 [pM] 48 h for T-cell mediated killing of ASPC1 cells (LDH release, human PBMCs, E:T 10:1)” value [1] was 846 pM, the “EC50 [pM] 48 h for T-cell mediated killing of BxPC-3 cells (LDH release, human PBMCs, E:T 10:1)” value [1] was 3780 pM and the “EC50 [pM] 48 h for T-cell mediated killing of HPAFII cells (LDH release, human PBMCs, E:T 10:1)” value [1] was 667 pM. For the same binder, the binding result [2] was “binds”, the “EC50 of killing of A549-hCEA cells at 40 h, cynomolgus PBMCs as effector cells” value [3] was 0.102 nM and the “EC50 of killing of A549-hCEA cells at 40 h, human PBMCs as effector cells” value [3] was 0.306 nM.

B2: MCSP TCB (2+1 Crossfab-IgG P329G LALA inverted) (bispecific antibody)
chain 1: not shown
chain 2: QAVVTQEPSLTVSPGGTVTLTCGSSTGAVTTSNYANWVQEKPGQAFRGLIGGTNKRAPGTPARFSGSLLGGKAALTLSGAQPEDEAEYYCALWYSNLWVFGGGTKLTVLSSASTKGPSVFPLAPSSKSTSGGTAALGCLVKDYFPEPVTVSWNSGALTSGVHTFPAVLQSSGLYSLSSVVTVPSSSLGTQTYICNVNHKPSNTKVDKKVEPKSC
chain 3: not shown
chain 4: QVQLQESGPGLVKPSQTLSLTCTVSGGSITSGYYWNWIRQHPGKGLEWIGYITFDGSNNYNPSLKSRVTISRDTSKNQFSLKLSSVTAADTAVYYCADFDYWGQGTLVTVSSASTKGPSVFPLAPSSKSTSGGTAALGCLVKDYFPEPVTVSWNSGALTSGVHTFPAVLQSSGLYSLSSVVTVPSSSLGTQTYICNVNHKPSNTKVDKKVEPKSCDKTHTCPPCPAPEAAGGPSVFLFPPKPKDTLMISRTPEVTCVVVDVSHEDPEVKFNWYVDGVEVHNAKTKPREEQYNSTYRVVSVLTVLHQDWLNGKEYKCKVSNKALGAPIEKTISKAKGQPREPQVCTLPPSRDELTKNQVSLSCAVKGFYPSDIAVEWESNGQPENNYKTTPPVLDSDGSFFLVSKLTVDKSRWQQGNVFSCSVMHEALHNHYTQKSLSLSPGK
notes: Two anti-MCSP Fabs M4-3(C1) ML2(G3), one anti-CD3 crossfab (humanized CH2527), Fc knob-into-hole with P329G LALA; the conventional light chain occurs twice (vector ratio 1:2:1:1); also called MCSP TCB antibody; MCSP CD3 bispecific antibody
B2: binds [4].

B3: untargeted TCB (bispecific antibody)
polypeptide chain; the text does not say which chain this SEQ ID NO is 1: not shown
polypeptide chain; the text does not say which chain this SEQ ID NO is 2: QAVVTQEPSLTVSPGGTVTLTCGSSTGAVTTSNYANWVQEKPGQAFRGLIGGTNKRAPGTPARFSGSLLGGKAALTLSGAQPEDEAEYYCALWYSNLWVFGGGTKLTVLSSASTKGPSVFPLAPSSKSTSGGTAALGCLVKDYFPEPVTVSWNSGALTSGVHTFPAVLQSSGLYSLSSVVTVPSSSLGTQTYICNVNHKPSNTKVDKKVEPKSC
polypeptide chain; the text does not say which chain this SEQ ID NO is 3: not shown
polypeptide chain; the text does not say which chain this SEQ ID NO is 4: not shown
notes: Control bispecific antibody that engages CD3 through humanized CH2527 but no second antigen; also called DP47GS TCB; DP47 GS TCB
B3: no binding (tested: about log 5.3 [pM] (about 200 nM)) [5]; no binding (tested: log 6 [pM] (1000 nM)) [6]; binds [4].

B4: M4-3(C1)/ML2(G3) IgG (antibody, V domains shown)
VH: QVQLQESGPGLVKPSQTLSLTCTVSGGSITSGYYWNWIRQHPGKGLEWIGYITFDGSNNYNPSLKSRVTISRDTSKNQFSLKLSSVTAADTAVYYCADFDYWGQGTLVTVSS
VL: DIQMTQSPSSLSASVGDRVTITCRASQGIRNYLNWYQQKPGKAPKLLIYYTSSLHSGVPSRFSGSGSGTDYTLTISSLQPEDFATYYCQQYSALPWTFGQGTKVEIKR
notes: Human IgG1 format, produced in HEK293-EBNA
In the case of B4, the “Fold increase over parent (IgG KD)” value (cynomolgus MCSP D3) is reported as 10 fold and the “Fold increase over parent (IgG KD)” value [7] is reported as 28.6 fold.
